# Measurements as given in patent publication US12091776B2, “Protease activity profiling via programmable phage display of comprehensive proteome-scale peptide libraries” (THE JOHNS HOPKINS UNIVERSITY, priority 2019, dated 2024).
# Several values for one entry are separate records, joined by “and”; a condition that tells them apart may be missing. Equal entries are not always repeated.
# T1: Caspase-1 (Homo sapiens, UniProt P29466)
# T1 construct: purchased BioVision
# T1 sequence (P29466 120-297 limits assumed): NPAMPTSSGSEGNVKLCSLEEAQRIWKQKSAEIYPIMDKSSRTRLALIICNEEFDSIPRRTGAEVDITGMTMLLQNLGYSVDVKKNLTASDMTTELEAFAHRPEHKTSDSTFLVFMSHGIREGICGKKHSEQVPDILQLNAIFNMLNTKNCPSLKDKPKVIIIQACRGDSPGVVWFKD
# T1 sequence (P29466 317-404 limits assumed): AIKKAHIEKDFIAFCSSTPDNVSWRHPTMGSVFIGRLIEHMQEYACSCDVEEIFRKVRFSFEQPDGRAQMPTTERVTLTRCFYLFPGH
# T2: endogenous Caspase-1 (Homo sapiens, UniProt P29466)
# T2 construct: endogenous in cells; host or cells: PMA-differentiated THP-1 cells
# T2 sequence (P29466 120-404): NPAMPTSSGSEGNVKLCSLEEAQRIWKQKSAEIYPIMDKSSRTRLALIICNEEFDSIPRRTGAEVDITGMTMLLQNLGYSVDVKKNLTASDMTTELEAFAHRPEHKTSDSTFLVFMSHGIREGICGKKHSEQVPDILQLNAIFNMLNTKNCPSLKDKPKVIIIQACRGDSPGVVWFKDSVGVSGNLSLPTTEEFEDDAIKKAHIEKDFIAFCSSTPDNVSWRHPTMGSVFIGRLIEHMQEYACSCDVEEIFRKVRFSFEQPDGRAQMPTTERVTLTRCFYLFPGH
# B1: Gasdermin-D: well characterized human Caspase-1 substrate (protein, UniProt P57764 1-484, looked up)
# Gasdermin-D: MGSAFERVVRRVVQELDHGGEFIPVTSLQSSTGFQPYCLVVRKPSSSWFWKPRYKCVNLSIKDILEPDAAEPDVQRGRSFHFYDAMDGQIQGSVELAAPGQAKIAGGAAVSDSSSTSMNVYSLSVDPNTWQTLLHERHLRQPEHKVLQQLRSRGDNVYVVTEVLQTQKEVEVTRTHKREGSGRFSLPGATCLQGEGQGHLSQKKTVTIPSGSTLAFRVAQLVIDSDLDVLLFPDKKQRTFQPPATGHKRSTSEGAWPQLPSGLSMMRCLHNFLTDGVPAEGAFTEDFQGLRAEVETISKELELLDRELCQLLLEGLEGVLRDQLALRALEEALEQGQSLGPVEPLDGPAGAVLECLVLSSGMLVPELAIPVVYLLGALTMLSETQHKLLAEALESQTLLGPLELVGSLLEQSAPWQERSTMSLPPGLLGNSWGEGAPAWVLLDECGLELGEDTPHVCWEPQAQGRMCALYASLALLSGLSQEPH
# B2: IL-1β: mouse IL-1β (SEQ ID NO:73); library peptides containing Caspase-1 cleavage sites D26 and D117 (protein, UniProt P10749 118-269, looked up)
# Interleukin-1 beta: VPIRQLHYRLRDEQQKSLVLSDPYELKALHLNGQNINQQVIFSMSFVQGEPSNDKIPVALGLKGKNLYLSCVMKDGTPTLQLESVDPKQYPKKKMEKRFVFNKIEVKSKVEFESAEFPNWYISTSQAEHKPVFLGNNSGQDIIDFTMESVSS
# B3: APLPRSNRSRCPGTRQPGAASLHAASAAVPVRPRRGTAPAGKTADAVPAAAPEQAPRPAPQSRKPRNLEGDLDERRLLCHLQLAQDREAR (protein, listed as Homo sapiens)
# chain: APLPRSNRSRCPGTRQPGAASLHAASAAVPVRPRRGTAPAGKTADAVPAAAPEQAPRPAPQSRKPRNLEGDLDERRLLCHLQLAQDREAR
# Experiments:
# [1] = target: T1, Caspase-1; experiment: SEPARATE assay: human peptidome library digest with Caspase-1; assay type: biochemical; settings: human library, Caspase-1
# Protocol: (§1) Streptavidin-coupled magnetic beads (Dynabeads M-280 Streptavidin, ThermoFisher Scientific) were washed (TBS, pH 7.4, 0.01% NP40) and resuspended in binding buffer (TBS, pH 7.4, 0.001% NP40) containing 2E9 plaque forming units per 10 μl of bead slurry. End-over-end mixing at room temperature was performed for one hour. Phage-coated beads were washed three times with wash buffer and transferred into two protein LoBind Eppendorf tubes blocked with TBS, pH 7.4 containing 1% BSA.
# Digestion occurred overnight at room temperature with end-over-end rotation. […] To remove any residual biotinylated phage that may have been nonspecifically released, the 150 μl supernatant of the quenched digest reaction is then incubated with a fresh 10 μl of slurry volume M280 streptavidin beads (pre-washed three times with wash buffer) in a LoBind Eppendorf tube blocked with TBS, pH 7.4 containing 1% BSA at room temperature for one hour with end-over-end rotation.
# 10 μl slurry volume of protein G magnetic dynabeads were washed in buffer (TBS, pH 7.4, 0.01% NP40) and then resuspended in 50 μl TBS, pH 7.4, 0.01% NP40 containing 4 μg of M2 FLAG antibody for thirty minutes at room temperature with end-over-end rotation. The 150 μl quenched digest reaction is added to the 10 μl FLAG-coated Protein G beads and incubated for 60 minutes at room temperature with end-over-end rotation to capture phage particles released at the protease digest step. Beads are rinsed once with 100 μl wash buffer and stored at −80° C. until PCR amplification.
# Library PCR preparation, high-throughput DNA sequencing, and peptide read count data generation was performed as described previously.^44 Briefly, library peptide inserts are amplified by resuspending 10 μl of FLAG-coated Protein G beads in PCR1 master mix containing the T7-Pep2_PCR1_F forward primer ([…]) (SEQ ID NO:3) and a T7-SEPARATE vector specific reverse primer ([…]) (SEQ ID NO:4), which includes an adapter sequence for sample-specific barcoding and Illumina P7 adapter incorporation during a subsequent PCR2 reaction. The PCR2 amplicons are pooled and sequenced using an Illumina NextSeq instrument in standard output mode to obtain single-end 50 nucleotide reads. Dual indexed sample demultiplexing and clonal read count determination were performed using exact sequence matching. […] To calculate the normalization factor, 100 peptides were randomly selected from the mock digest conditions with a read count ranging between 10 and 40. The median read count value for these 100 peptides is calculated for each sample. The random peptide selection and median calculation is performed 20 times and the average of the 20 median values is calculated for each sample. Finally, the normalization factor is calculated by dividing the average median value for each sample by that for one of the mock digest conditions. Read counts are then converted to normalized read counts by dividing each sample's read count values by the normalization factor. Fold enrichments are calculated for each peptide by dividing their normalized read counts in the digest condition by the normalized read counts in the mock digest condition. The fold enrichments can be visualized in an MA plot by transforming the normalized read count data into a log ratio (M, on the y-axis) and a mean average (A, on the x-axis) between the digest and mock digest conditions.
# [2] = target: T2, endogenous Caspase-1; experiment: In vitro stimulation of the inflammasome in THP-1 cells (Western blot); assay type: cell-based; settings: PMA differentiated THP-1 cells, LPS and Nigericin
# Protocol: THP-1 cells were cultured in RPMI-1640 media with Glutamax (Gibco, ThermoFisher, Cat #61870127), supplemented with 10% FBS (Hyclone SH30071, GE Life Sciences), and 1× Antibiotic-Antimycotic (Gibco, ThermoFisher, Cat #15240062), referred to as complete RPMI. To differentiate THP-1 cells into macrophages, 1×10^6 THP-1 cells were added per well of a 6-well plate in complete RPMI medium containing 50 ng/ml Phorbol 12-myristate 13-acetate (PMA, diluted in RPMI medium from a 1 mg/ml PMA stock in DMSO, Millipore Sigma, Cat. No. P1585). After 48 hours when the cells become adherent, the medium with PMA was removed, cells washed in 1×PBS once, and fresh complete RPMI was added. Cells were allowed to rest for an additional 24 hours before inflammasome activation with LPS and Nigericin.
# A 6-well plate of PMA differentiated THP-1 cells were treated with 0, 1 or 0.1 μg/ml LPS (Millipore Sigma, Cat. No. LPS25) for 3.5 hours. After 3.5 hours, cells were treated with 2.5 μM Nigericin for an additional 30 minutes to activate the inflammasome. Cells were washed in 1×PBS and lysed in 1× mammalian cell extraction buffer (BioVision, Cat. No. K269) containing 2 μM Dithiothreitol (DTT). Nuclei were spun down by centrifugation (10,000 rpm, 5 minutes, 4° C.) and the cleared supernatant was used to perform Western blots. […]
# [3] = target: T1, Caspase-1; experiment: SEPARATE assay: 56-amino acid mouse peptidome library digested with Caspase-1; assay type: biochemical; settings: mouse library peptides of IL-1β and Gsdmd, FIG. 8
# Protocol: as §1
# Digestion occurred overnight at room temperature with end-over-end rotation. […]
# Library PCR preparation, high-throughput DNA sequencing, and peptide read count data generation was performed as described previously.^44 Briefly, library peptide inserts are amplified by resuspending 10 μl of FLAG-coated Protein G beads in PCR1 master mix containing the T7-Pep2_PCR1_F forward primer ([…]) (SEQ ID NO:3) and a T7-SEPARATE vector specific reverse primer ([…]) (SEQ ID NO:4), which includes an adapter sequence for sample-specific barcoding and Illumina P7 adapter incorporation during a subsequent PCR2 reaction. The PCR2 amplicons are pooled and sequenced using an Illumina NextSeq instrument in standard output mode to obtain single-end 50 nucleotide reads. Dual indexed sample demultiplexing and clonal read count determination were performed using exact sequence matching. […]
# [4] = target: T3, Thrombin (Homo sapiens, UniProt P00734); experiment: SEPARATE assay: human peptidome library digest with Thrombin; assay type: biochemical; settings: top 20 enriched peptides, human library (90-aa tiles); digest vs mock digest
# T3 construct: Thrombin (a serine protease); purchased SignalChem
# Protocol: The PCR2 amplicons are pooled and sequenced using an Illumina NextSeq instrument in standard output mode to obtain single-end 50 nucleotide reads. Dual indexed sample demultiplexing and clonal read count determination were performed using exact sequence matching. […] To calculate the normalization factor, 100 peptides were randomly selected from the mock digest conditions with a read count ranging between 10 and 40. The median read count value for these 100 peptides is calculated for each sample. The random peptide selection and median calculation is performed 20 times and the average of the 20 median values is calculated for each sample. Finally, the normalization factor is calculated by dividing the average median value for each sample by that for one of the mock digest conditions. […]
molecule,measurement,setting,value
B1,scoring in the SEPARATE assay,[1],did not score
same,cleavage by endogenous Caspase-1 upon inflammasome activation (Western blot),[2],cleaved
B2,Fold enrichments,[3],7.5 fold and 13 fold and 9 fold
B3,Thrombi Fold Change,[4],10.98 fold
